Assay results published in paper PMC10104851, “SynDLP is a dynamin-like protein of Synechocystis sp. PCC 6803 with eukaryotic features” (Nature Communications, 2023).
Residue numbers refer to the chain shown, from its start. In names and notes the source's numbering stands.

B1: SynDLP (Synechocystis sp. PCC 6803 substr. Kazusa) (protein)
chain: MSKIAPQCQNLREQVNQLIELLRQEPTLRSQQDTSIVETALGKALSPRFEIVFAGAFSAGKSMLINALLERELLYSAEGHATGTECHIEYANANEERVVLTFLSEAEIRQQALILAKYLNVNVGDLNINQPEAVKVVSQYCQKIIAEEGGENKSERAKQANALHLLLIGFEQNRERINTVQNSTYSMDQLNFSSLAEAAGYARRGANSAVLKRLDYFCNHSLLKDGNVLVDLPGIDAPVKEDAERAYRKIESPDTSAVICVLKPAAAGDMSAEETQLLERISKNHGIRDRVFYVFNRIDDTWYNTQLRQRLEGLIQSQFRDNSRVYKTSGLLGFYGSQVKQTNSSTRFGLDSIFATTIKGFDGEEETPQFVSEFNNYCANSGKLLSTAFRVSVNGYETSNENYVRILSEWGIPLVDQLIHDSGIESFRSGIGLYLAEEKYPELFATLANDLQPLCIALRQFYLENYRQLDSQPREIAAMKAQELTLLNQEMQNLGIEFKKYMSAQINDVVIGNDREFDQDFTKLKARMVARLDELLKTFSVMNAYKRATESHPRNSTAPFIAVLVEALYYLANELEDAFIEAIHELVKNFFQRLGDRLRKVDCYHQVYRLVGNDGGIEQLLRRAEEDITKALVNEARTECDRYVRESPRFYDEGTFSIYQFRQTLQQTSQGYDAQAIVEAEPAIKELLKLDFEPKVFNTVRKNFRQTVNNTLKTHLLPMAEEQAQIILEQYDVARKYREQTLEQDAEEKIARNSRLQSEIKQKIDLYQTSIVSINECLKAMQIFEQLPVITESDITKQAEIVADADFVEIVE
notes: full length, C-terminal His tag (pET303-CT/His), E. coli Rosetta-gami 2 (DE3), calculated 93 kDa; oligomer of ~40-50 monomers in solution; model covers aa 1-793, last 19 residues unresolved
B2: SynDLP (Synechocystis sp. PCC 6803 substr. Kazusa; C777A) (protein)
chain: B1 chain with C777A
notes: as for B1
B3: SynDLP (Synechocystis sp. PCC 6803 substr. Kazusa; H552A/N555A/P553A/R554A) (protein)
chain: B1 chain with H552A, P553A, R554A, N555A
notes: as for B1

Columns and labels:
[1] = molecular target: SynDLP_(HPRN-AAAA) (Synechocystis sp. PCC 6803)
[2] = molecular target: SynDLP_(HPRN-AAAA) (Synechocystis sp. PCC 6803); assay: SEC; analytical SEC, Superose 6 Increase 3.2/300 in reaction buffer (20 mM HEPES pH 7.4, 150 mM NaCl, 7.5 mM KCl, 5 mM MgCl2, 0.2 mM DTT); 30 µl of 10 µM protein; 7 °C; no nucleotide, no membrane
[3] = molecular target: SynDLP, the dynamin-like protein of Synechocystis sp. PCC 6803 (Synechocystis sp. PCC 6803); assay: cryo-EM structure; about 3.0 mg/mL SynDLP in 5 mM MgCl2, 7.5 mM KCl, 20 mM HEPES pH 7.4 (no NaCl), no nucleotide, no membrane; segmented single-particle analysis, C2 symmetry; model of 8 monomers
[4] = molecular target: SynDLP, the dynamin-like protein of Synechocystis sp. PCC 6803 (Synechocystis sp. PCC 6803)
[5] = molecular target: T1, SynDLP (Synechocystis sp. PCC 6803, UniProt P73765, K61A); assay: continuous regenerative coupled GTPase assay; type: biochemical; details: P-loop mutant
T1 construct: gene slr0869; full length, C-terminal His tag (pET303-CT/His), E. coli Rosetta-gami 2 (DE3), calculated 93 kDa; oligomer of ~40-50 monomers in solution; model covers aa 1-793, last 19 residues unresolved

[6] = substrate: Nc1nc2c(ncn2[C@@H]2O[C@H](COP(=O)(O)OP(=O)(O)OP(=O)(O)O)[C@@H](O)[C@H]2O)c(=O)[nH]1; assay: continuous regenerative coupled GTPase assay (PK/LDH, NADH); type: biochemical, Synechocystis sp. PCC 6803; details: 0.5 µM protein, 20 mM HEPES pH 7.4, 150 mM NaCl, 7.5 mM KCl, 5 mM MgCl2, 0.2 mM DTT, 30 °C, no liposomes
Excerpt: continuous regenerative coupled GTPase assay (PK/LDH, NADH) on […]

T1 sequence (P73765 entry or part of it K61A): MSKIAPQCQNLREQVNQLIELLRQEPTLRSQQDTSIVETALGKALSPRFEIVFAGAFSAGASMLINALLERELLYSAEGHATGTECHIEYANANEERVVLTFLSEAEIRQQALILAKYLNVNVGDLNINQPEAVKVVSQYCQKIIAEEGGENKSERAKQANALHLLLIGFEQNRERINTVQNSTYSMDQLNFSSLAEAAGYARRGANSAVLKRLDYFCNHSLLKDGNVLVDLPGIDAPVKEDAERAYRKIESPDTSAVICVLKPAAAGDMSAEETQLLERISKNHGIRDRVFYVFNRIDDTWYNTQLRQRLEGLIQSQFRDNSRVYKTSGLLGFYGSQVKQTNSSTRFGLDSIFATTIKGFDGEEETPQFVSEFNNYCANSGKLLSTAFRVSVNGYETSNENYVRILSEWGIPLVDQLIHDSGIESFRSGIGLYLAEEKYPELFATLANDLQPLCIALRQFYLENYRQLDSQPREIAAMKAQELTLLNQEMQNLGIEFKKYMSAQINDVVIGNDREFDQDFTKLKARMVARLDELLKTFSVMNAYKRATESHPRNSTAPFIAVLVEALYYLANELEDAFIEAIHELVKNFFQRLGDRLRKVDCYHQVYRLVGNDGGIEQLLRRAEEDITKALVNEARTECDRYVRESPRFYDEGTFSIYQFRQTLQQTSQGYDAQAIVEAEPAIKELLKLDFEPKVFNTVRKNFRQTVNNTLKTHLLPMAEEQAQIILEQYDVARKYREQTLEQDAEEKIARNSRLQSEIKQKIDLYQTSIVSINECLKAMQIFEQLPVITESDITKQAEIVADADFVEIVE

Row | Molecule | Km [6] | kcat [6] | also measured
1 | SynDLP_(HPRN-AAAA) (natural protein) | – | – | kcat of GTP hydrolysis (continuous, regenerative, coupled GTPase assay, 0.5 µM protein) [1]: 0.283 s⁻¹; stoichiometry N [2]: 2
2 | SynDLP, the dynamin-like protein of Synechocystis sp. PCC 6803 (natural protein) | – | – | stoichiometry N [3]: 40 to 50 monomers; kcat of GTP hydrolysis (continuous, regenerative, coupled GTPase assay, 0.5 µM protein) [4]: 0.743 s⁻¹
3 | Nc1nc2c(ncn2[C@@H]2O[C@H](COP(=O)(O)OP(=O)(O)OP(=O)(O)O)[C@@H](O)[C@H]2O)c(=O)[nH]1 [GTP] | – | – | continuous regenerative coupled GTPase assay [5]: A mutation of a conserved residue in the P-loop (K61A) considerably reduced the GTPase activity
4 | B1 | 500 ± 40 µM | 0.743 ± 0.0167 s⁻¹ | –
5 | B2 | 350 ± 40 µM | 0.462 ± 0.0133 s⁻¹ | –
6 | B3 | 330 ± 20 µM | 0.283 ± 0.00333 s⁻¹ | –
